From patent US20200030452A1, “Process for the Manufacture of a Tumor-Vasculature Targeting Antitumor Agent” (priority 2016, published 2020)
Residues, ends and D or L forms follow the SMILES beside them. *: point of attachment. X1 = CCc1c2c(nc3ccc(OC(=O)[C@H]4CC[C@H](CNC(=O)[C@H]5CC[C@H](CN6C(=O)CC(*)C6=O)CC5)CC4)cc13)-c1cc3c(c(=O)n1C2)COC(=O)[C@]3(O)CC

Legend:
Format in all cases: in vivo
[1] = test system: human colon HCT116 tumors; experiment: IF7-SN38 injected intravenously into nude mice carrying human colon HCT116 tumors; conditions: intravenous, low dosages
[2] = test system: tumors; experiment: Treatment of mice with tumors using IF7-SN38
Excerpt: (§1) Therefore, using our targeted therapy, a small amount of IF7-SN38 is required to be injected to patients. The efficiency of IF7-SN38 is unprecedented in mice, in particular for the brain malignancies. […] It is believed that IF7-SN38 would work far better than PEGylated SN38 by targeting malignant tumors including brain malignancy. The low dosage, specificity, and easily degrading nature of IF7-SN38 in targeted cells to release SN38, are the major factors for the superiority of our drug to PEG-SN38.

[3] = Crossing of the blood brain barrier; conditions: by passive transcytosis mechanism
Excerpt: as §1

## CCc1c2c(nc3ccc(OC(=O)[C@H]4CC[C@H](CNC(=O)[C@H]5CC[C@H](CN6C(=O)CC(SC[C@H](NC(=O)[C@H](CCCNC(=N)N)NC(=O)[C@H](CCC(N)=O)NC(=O)[C@H](Cc7c[nH]c8ccccc78)NC(=O)[C@H](CC(C)C)NC(=O)[C@H](CC(C)C)NC(=O)[C@H](Cc7ccccc7)NC(=O)[C@@H](N)[C@@H](C)CC)C(=O)N[C@@H](CCCNC(=N)N)C(=O)N[C@@H](CCCNC(=N)N)C(=O)O)C6=O)CC5)CC4)cc13)-c1cc3c(c(=O)n1C2)COC(=O)[C@]3(O)CC (stereo partly drawn) [IF7-SN38] (H-IFLLWQRC(X1)RR-OH; N-terminus and C-terminus assumed)
[1]
  side effects: no apparent side effects
[2]
  side effects in the treated mice: without producing any side effects
[3]
  blood brain barrier: overcomes blood brain barrier
